For 19 molecules, EC50 and IC50 results are on record in patent publication US20250136678A1 (BIOSION, published 2025).

The target in assay [1] is T1, human CLDN18.2 (NP_001002026.1) (human, UniProt P56856-2 1-261).
T1 construct: whole, on cells; KATO III cells also served as target cells in the ADCC assay; also called Claudin18.2; Claudin-18 splice variant 2
The assay is described as follows: cell-based binding FACS on BAF3-CLDN18.2 cells, MFI against Con of mAb, nM is the unit of the x axis; the three mouse curves overlap and level off near MFI 2300-2400.
Method: (§1) The BAF3-CLDN18.2, BAF3-CLDN18.1 and BAF3 cells were harvested, washed twice and re-suspended in phosphate buffered saline (PBS) containing 2% v/v Fetal Bovine Serum (FACS buffer), BAF3 cells were used here as blank control. The cells, 1×10⁵ per well, were incubated in 96 well-plates with 100 μl serially diluted antibodies or controls (starting from 10 μg/mL, 5-fold serial dilution) in FACS buffer for 50 minutes on ice. […] Following an incubation of 50 minutes at 4° C. in dark, cells were washed three times and re-suspended in FACS buffer. Fluorescence was measured using a Becton Dickinson FACS Canto II-HTS equipment, and the MFI (mean fluorescence intensity) was plotted against antibody concentration. Data was analyzed using Graphpad Prism and EC₅₀ values were reported.

Assay [2] addresses T1, human CLDN18.2 (NP_001002026.1). Put plainly: cell-based blocking FACS on BAF3-CLDN18.2 cells; competitor: biotin labeled Zolbetuximab, SA-PE detection, nM is the unit of the x axis; signal falls from about 800-870 to about 110 at the last point.
Method: The anti-CLDN18.2 antibodies of the disclosure, and the controls were diluted with FACS buffer starting from 10 μg/mL with 5-fold serial dilution. BAF3-CLDN18.2 cells were harvested from cell culture flasks at the log phase, washed twice and re-suspended in PBS containing 2% v/v Fetal Bovine Serum (FACS buffer). […] Then the cells were washed twice with FACS buffer, added with 100 μl/well SA-PE (1:200 dilution in FACS buffer, Cat #:016-110-084, Jackson Immunoresearch), and incubated for 40 minutes at 4° C. in dark. Cells were washed twice and re-suspended in FACS buffer. Fluorescence was measured using a Becton Dickinson FACS Canto II-HTS equipment. Data was analyzed using Graphpad Prism and IC₅₀ values were reported.
Assay [3] has the same target. The assay is described as follows: cell-based binding FACS on BAF3-CLDN18.2 cells, MFI against Con of mAb, nM is the unit of the x axis; curve lies in a bundle of overlapping curves reaching MFI about 5000-6000.
Method: as §1
Assay [4] shares this target. Put plainly: cell-based binding FACS on BAF3-CLDN18.2 cells, MFI against Con of mAb, nM is the unit of the x axis; curve lies in a bundle of close curves reaching MFI about 5300-5900.
Method: as §1

Broadly, the EC50 is the concentration giving half of the maximal effect. A high value points to a need for much substance. The term IC50 denotes the midpoint of a concentration-inhibition curve. The low end stands for higher potency, the high end for lower potency.

B1: mouse antibody E1B1B8C7 (antibody, V domains shown)
VH: QVQLQQPGAELVRPGTSVKLSCKASGYSFTNYWVNWVKQRPGQGLEWIGMVHPSGSETRLNQQFKDKATLTVDKSSNTAYMQLNRPTSEDSAVYYCARVWSGNAFDYWGQGTTLIVSS
VL: DIVMTQSPSSLTVTAGEKVTLNCLSSQSLLNSGNQRNYLTWYQQKPGQPPKLLIYWASTRDSGVPDRFTGGGSGVDFTLTIYRVQAEDLAFYYCQNGFSFPFTFGSGTKLEMK
notes: Mouse hybridoma monoclonal antibody; also called mouse E1B1B8C7
The molecule B1 registered an EC50 in assay [1] of 2.24 nM. The IC50 in assay [2] worked out at 6.86 nM.

B2: mouse antibody E1H4C3E5 (antibody, V domains shown)
VH: QVQLQQPGAELVRPGTSVKLSCKASGYSFTNYWMNWVKQRPGQGLEWIGMIHPSGSESRLNQKFKDKATLTVDKSSNTAYMQLNRPTSADSAVYYCARVWSGNAFDYWGQGTTLIVSS
VL: DIVMTQSPSSLTVTAGEKVTLSCMSSQSLLNSGNQKNYLTWYQQKPGQPPKLLIFWASTRDSGVPDRFTGGGSGTLFTLTIYRVQAEDLAFYYCQNGFSFPFTFGSGTKLEMR
notes: Mouse hybridoma monoclonal antibody
In assay [1], B2 displayed an EC50 of 1.49 nM. In assay [2], this molecule came in with a half-inhibitory concentration (IC50) of 4.38 nM.

B3: mouse antibody E1A1F4B5 (antibody, V domains shown)
VH: QVQLQQPGAELVRPGTSVKLSCKASGYSFTNYWVNWVKQRPGQGLEWIGMIHPSGSETRLNQRFRDKTTLTVDRSSNTAYMQLNRPTSEDSAVYYCARVWSGNAFDYWGQGTTLIVSS
VL: DIVMTQSPSSLTVTAGEKVTLNCMSSQSLLNSGNQKNYLTWYQQKPGQPPKLLIYWASTRDSGVPDRFTGGGSGVDFTLTIYRVQAEDLAFYFCQNGFSFPFTFGSGTKLEMK
notes: Mouse hybridoma monoclonal antibody purified on Protein A
In turn, B3 yielded a concentration giving a half-maximal response (EC50) in assay [1] of 1.76 nM. In assay [2], the IC50 was determined as 5.29 nM.

B4: huE1B1B8C7-V2 (antibody, human IgG1, kappa, V domains shown)
VH: QVQLVQSGAEVKKPGASVKVSCKASGYSFTNYWVNWVRQAPGQGLEWIGMVHPSGSETRLNQQFKDKATLTVDTSTSTVYMELSSLRSEDTAVYYCARVWSGNAFDYWGQGTLVTVSS
VL: DIVMTQSPDSLAVSLGERATINCLSSQSLLASGNQRNYLTWYQQKPGQPPKLLIYWASTRDSGVPDRFTGSGSGVDFTLTISSVQAEDVAVYYCQNGFSFPFTFGQGTKLEIKR
notes: Humanized, human IgG1/kappa; X positions as numbered in CLM-00003 and CLM-00004
B4 registered an EC50 in assay [3] of 5.18 nM.

B5: huE1B1B8C7-V7 (antibody, human IgG1, kappa, V domains shown)
VH: QVQLVQSGAEVKKPGASVKVSCKASGYSFTNYWVNWVRQAPGQGLEWIGMVHPSGSETRLNQQFKDKATMTVDTSTSTVYMELSSLRSEDTAVYYCARVWSGNAFDYWGQGTLVTVSS
VL: DIVMTQSPDSLAVSLGERATINCLSSQSLLASGNQRNYLTWYQQKPGQPPKLLIYWASTRDSGVPDRFTGSGSGVDFTLTISSVQAEDVAVYYCQNGFSFPFTFGQGTKLEIKR
notes: as for B4
Turning to B5, in assay [3], a half-maximal effect (EC50) was put at 3.89 nM.

B6: huE1B1B8C7-V14 (antibody, human IgG1, kappa, V domains shown)
VH: QVQLVQSGAEVKKPGASVKVSCKASGYTFTNYWVNWVRQAPGQGLEWIGMVHPSGSETRLNQQFKDKATLTVDTSTSTVYMELSSLRSEDTAVYYCARVWSGNAFDYWGQGTLVTVSS
VL: DIVMTQSPDSLAVSLGERATINCLSSQSLLASGNQRNYLTWYQQKPGQPPKLLIYWASTRDSGVPDRFTGSGSGTDFTLTISSVQAEDVAVYYCQNGFSFPFTFGQGTKLEIKR
notes: as for B4
In turn, B6 came in with a concentration giving a half-maximal response (EC50) in assay [4] of 4.03 nM.

B7: huE1B1B8C7-V11 (antibody, human IgG1, kappa, V domains shown)
VH: QVQLVQSGAEVKKPGASVKVSCKASGYTFTNYWVNWVRQAPGQGLEWIGMVHPSGSETRLNQQFKDKATLTVDTSTSTVYMELSSLRSEDTAVYYCARVWSGNAFDYWGQGTLVTVSS
VL: DIVMTQSPDSLAVSLGERATINCLSSQSLLASGNQRNYLTWYQQKPGQPPKLLIYWASTRDSGVPDRFSGSGSGVDFTLTISSVQAEDVAVYYCQNGFSFPFTFGQGTKLEIKR
notes: as for B4
B7 displayed an EC50 in assay [4] of 5.39 nM.

B8: huE1B1B8C7-V16 (antibody, human IgG1, kappa, V domains shown)
VH: QVQLVQSGAEVKKPGASVKVSCKASGYSFTNYWVNWVRQAPGQGLEWIGMVHPSGSETRLNQQFKDKATLTVDTSTSTVYMELSSLRSEDTAVYYCARVWSGNAFDYWGQGTLVTVSS
VL: DIVMTQSPDSLAVSLGERATINCLSSQSLLASGNQRNYLTWYQQKPGQPPKLLIYWASTRDSGVPDRFTGSGSGVDFTLTISSLQAEDVAVYYCQNGFSFPFTFGQGTKLEIKR
notes: as for B4
In the case of B8, the EC50 in assay [4] was found to be 3.29 nM. This EC50 is about 1.6-fold lower than that of the molecule before.

B9: huE1B1B8C7-V4 (antibody, human IgG1, kappa, V domains shown)
VH: QVQLVQSGAEVKKPGASVKVSCKASGYSFTNYWVNWVRQAPGQGLEWMGMVHPSGSETRLNQQFKDKATLTVDTSTSTVYMELSSLRSEDTAVYYCARVWSGNAFDYWGQGTLVTVSS
VL: DIVMTQSPDSLAVSLGERATINCLSSQSLLASGNQRNYLTWYQQKPGQPPKLLIYWASTRDSGVPDRFTGSGSGVDFTLTISSVQAEDVAVYYCQNGFSFPFTFGQGTKLEIKR
notes: as for B4
Take B9: the 50% effective concentration (EC50) in assay [3] is 3.63 nM.

B10: huE1B1B8C7-V17 (antibody, human IgG1, kappa, V domains shown)
VH: QVQLVQSGAEVKKPGASVKVSCKASGYTFTNYWVNWVRQAPGQGLEWIGMVHPSGSETRLNQQFKDKATLTVDTSTSTVYMELSSLRSEDTAVYYCARVWSGNAFDYWGQGTLVTVSS
VL: DIVMTQSPDSLAVSLGERATINCLSSQSLLASGNQRNYLTWYQQKPGQPPKLLIYWASTRDSGVPDRFTGSGSGVDFTLTISSLQAEDVAVYYCQNGFSFPFTFGQGTKLEIKR
notes: as for B4
B10 yielded a half-maximal effective concentration (EC50) in assay [4] of 4.87 nM.

B11: huE1B1B8C7-V9 (antibody, human IgG1, kappa, V domains shown)
VH: QVQLVQSGAEVKKPGASVKVSCKASGYSFTNYWVNWVRQAPGQGLEWIGMVHPSGSETRLNQQFKDKATLTVDKSTSTAYMELSSLRSEDTAVYYCARVWSGNAFDYWGQGTLVTVSS
VL: DIVMTQSPDSLAVSLGERATINCLSSQSLLASGNQRNYLTWYQQKPGQPPKLLIYWASTRDSGVPDRFSGSGSGVDFTLTISSVQAEDVAVYYCQNGFSFPFTFGQGTKLEIKR
notes: as for B4
As to B11, a half-maximal response in assay [3] (EC50) required 2.31 nM. This counts as single-digit nanomolar.

B12: huE1B1B8C7-V3 (antibody, human IgG1, kappa, V domains shown)
VH: QVQLVQSGAEVKKPGASVKVSCKASGYTFTNYWVNWVRQAPGQGLEWIGMVHPSGSETRLNQQFKDKATLTVDTSTSTVYMELSSLRSEDTAVYYCARVWSGNAFDYWGQGTLVTVSS
VL: DIVMTQSPDSLAVSLGERATINCLSSQSLLASGNQRNYLTWYQQKPGQPPKLLIYWASTRDSGVPDRFTGSGSGVDFTLTISSVQAEDVAVYYCQNGFSFPFTFGQGTKLEIKR
notes: as for B4
B12 registered an EC50 in assay [3] of 3.7 nM.

B13: huE1B1B8C7-V10 (antibody, human IgG1, kappa, V domains shown)
VH: QVQLVQSGAEVKKPGASVKVSCKASGYSFTNYWVNWVRQAPGQGLEWIGMVHPSGSETRLNQQFKDKATLTVDTSTSTVYMELSSLRSEDTAVYYCARVWSGNAFDYWGQGTLVTVSS
VL: DIVMTQSPDSLAVSLGERATINCLSSQSLLASGNQRNYLTWYQQKPGQPPKLLIYWASTRDSGVPDRFSGSGSGVDFTLTISSVQAEDVAVYYCQNGFSFPFTFGQGTKLEIKR
notes: as for B4
The molecule B13 came in with an EC50 in assay [4] of 5.74 nM.

B14: huE1B1B8C7-V12 (antibody, human IgG1, kappa, V domains shown)
VH: QVQLVQSGAEVKKPGASVKVSCKASGYSFTNYWVNWVRQAPGQGLEWIGMVHPSGSETRLNQQFKDKATLTVDKSTSTAYMELSSLRSEDTAVYYCARVWSGNAFDYWGQGTLVTVSS
VL: DIVMTQSPDSLAVSLGERATINCLSSQSLLASGNQRNYLTWYQQKPGQPPKLLIYWASTRDSGVPDRFTGSGSGTDFTLTISSVQAEDVAVYYCQNGFSFPFTFGQGTKLEIKR
On to B14, for which, in assay [4], the midpoint of the response, the EC50, lay at 3.06 nM.

B15: huE1B1B8C7-V13 (antibody, human IgG1, kappa, V domains shown)
VH: QVQLVQSGAEVKKPGASVKVSCKASGYSFTNYWVNWVRQAPGQGLEWIGMVHPSGSETRLNQQFKDKATLTVDTSTSTVYMELSSLRSEDTAVYYCARVWSGNAFDYWGQGTLVTVSS
VL: DIVMTQSPDSLAVSLGERATINCLSSQSLLASGNQRNYLTWYQQKPGQPPKLLIYWASTRDSGVPDRFTGSGSGTDFTLTISSVQAEDVAVYYCQNGFSFPFTFGQGTKLEIKR
notes: as for B4
In the case of B15, the midpoint of the response in assay [4], the EC50, lay at 3.46 nM.

B16: huE1B1B8C7-V1 (antibody, human IgG1, kappa, V domains shown)
VH: QVQLVQSGAEVKKPGASVKVSCKASGYSFTNYWVNWVRQAPGQGLEWIGMVHPSGSETRLNQQFKDKATLTVDKSTSTAYMELSSLRSEDTAVYYCARVWSGNAFDYWGQGTLVTVSS
VL: DIVMTQSPDSLAVSLGERATINCLSSQSLLASGNQRNYLTWYQQKPGQPPKLLIYWASTRDSGVPDRFTGSGSGVDFTLTISSVQAEDVAVYYCQNGFSFPFTFGQGTKLEIKR
notes: as for B4
B16 registered an EC50 in assay [3] of 3.32 nM.

B17: huE1B1B8C7-V5 (antibody, human IgG1, kappa, V domains shown)
VH: QVQLVQSGAEVKKPGASVKVSCKASGYSFTNYWVNWVRQAPGQGLEWIGMVHPSGSETRLNQQFKDRATLTVDTSTSTVYMELSSLRSEDTAVYYCARVWSGNAFDYWGQGTLVTVSS
VL: DIVMTQSPDSLAVSLGERATINCLSSQSLLASGNQRNYLTWYQQKPGQPPKLLIYWASTRDSGVPDRFTGSGSGVDFTLTISSVQAEDVAVYYCQNGFSFPFTFGQGTKLEIKR
notes: as for B4
The molecule B17 yielded an EC50 in assay [3] of 4.33 nM.

B18: huE1B1B8C7-V6 (antibody, human IgG1, kappa, V domains shown)
VH: QVQLVQSGAEVKKPGASVKVSCKASGYSFTNYWVNWVRQAPGQGLEWIGMVHPSGSETRLNQQFKDKVTLTVDTSTSTVYMELSSLRSEDTAVYYCARVWSGNAFDYWGQGTLVTVSS
VL: DIVMTQSPDSLAVSLGERATINCLSSQSLLASGNQRNYLTWYQQKPGQPPKLLIYWASTRDSGVPDRFTGSGSGVDFTLTISSVQAEDVAVYYCQNGFSFPFTFGQGTKLEIKR
notes: as for B4
For the molecule B18, a half-maximal response in assay [3] (EC50) required 3.1 nM.

B19: huE1B1B8C7-V15 (antibody, human IgG1, kappa, V domains shown)
VH: QVQLVQSGAEVKKPGASVKVSCKASGYSFTNYWVNWVRQAPGQGLEWIGMVHPSGSETRLNQQFKDKATLTVDKSTSTAYMELSSLRSEDTAVYYCARVWSGNAFDYWGQGTLVTVSS
VL: DIVMTQSPDSLAVSLGERATINCLSSQSLLASGNQRNYLTWYQQKPGQPPKLLIYWASTRDSGVPDRFTGSGSGVDFTLTISSLQAEDVAVYYCQNGFSFPFTFGQGTKLEIKR
notes: as for B4
In turn, B19 showed a concentration for a half-maximal effect (EC50) in assay [4] of 2.76 nM.
